Data published in doi:10.1101/2023.01.30.525828, “A versatile synaptotagmin-1 nanobody provides perturbation-free live synaptic imaging and low linkage-error in super-resolution microscopy” (bioRxiv, 2023).

Columns and labels:
[1] = target: T1, cytosolic (amino acids 97-421) domain of rat Syt-1 (Rattus norvegicus (Rat)., UniProt P21707); assay: MST; NbSyt1 labelled with Alexa647 in MST buffer with 0.05 % Tween, incubated with dilutions of purified Syt-1(97-421); NT.115Pico Monolith; settings: both partners purified
T1 construct: Synaptotagmin 1, rat, cytosolic domain, amino acids 97-421; also called rSyt-1(97-421); Syt-1(97-421); source: E. coli NEB-Express, purified (Ni beads, eluted on column with SUMO protease)
T1 sequence (P21707 97-421): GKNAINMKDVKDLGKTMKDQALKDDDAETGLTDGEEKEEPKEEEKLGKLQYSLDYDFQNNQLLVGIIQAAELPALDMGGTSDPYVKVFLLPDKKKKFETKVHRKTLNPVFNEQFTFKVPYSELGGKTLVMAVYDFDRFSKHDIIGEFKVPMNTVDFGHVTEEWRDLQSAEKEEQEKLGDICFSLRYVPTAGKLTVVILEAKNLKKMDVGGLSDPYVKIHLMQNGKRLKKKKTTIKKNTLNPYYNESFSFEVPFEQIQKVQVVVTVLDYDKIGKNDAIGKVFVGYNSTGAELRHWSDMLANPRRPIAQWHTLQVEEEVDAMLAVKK

[2] = target: T2, desthio-biotinilated Syt-1(97-421) (Rattus norvegicus (Rat)., UniProt P21707, desthiobiotin (conjugated with desthiobiotin-N-hydroxysuccinimide ester)); assay: ELISA; phage ELISA: desthio-biotinilated Syt-1(97-421) immobilised overnight at 4°C on MaxiSorp plate; 25 μl phage supernatant in 5% skim milk PBS-T, 1 h RT; detected with anti-M13-HRP; settings: one partner purified
T2 construct: Synaptotagmin 1, rat, cytosolic domain, amino acids 97-421; The phage-display methods also print Syt-1(197-421) for this antigen; also called rSyt-1(97-421); immobilized cytosolic rSyt-1(97-421); source: E. coli NEB-Express, purified (Ni beads, SUMO protease elution), conjugated to desthiobiotin-NHS ester
T2 sequence (P21707 97-421): as above

[3] = target: T3, full-length rat Syt-1 fused to EGFP (Rattus norvegicus (Rat)., UniProt P21707); assay: immunostaining of cells or tissue; COS-7 cells transfected with Syt1-EGFP, fixed with 4% PFA, permeabilised; 50 nM fluorescent nanobody, 2 h RT; settings: one partner purified
T3 construct: Synaptotagmin 1, rat, full length; also called Syt1-EGFP; source: COS-7, transiently transfected, in fixed cells
T3 sequence (P21707 whole entry, the tested form may be a part): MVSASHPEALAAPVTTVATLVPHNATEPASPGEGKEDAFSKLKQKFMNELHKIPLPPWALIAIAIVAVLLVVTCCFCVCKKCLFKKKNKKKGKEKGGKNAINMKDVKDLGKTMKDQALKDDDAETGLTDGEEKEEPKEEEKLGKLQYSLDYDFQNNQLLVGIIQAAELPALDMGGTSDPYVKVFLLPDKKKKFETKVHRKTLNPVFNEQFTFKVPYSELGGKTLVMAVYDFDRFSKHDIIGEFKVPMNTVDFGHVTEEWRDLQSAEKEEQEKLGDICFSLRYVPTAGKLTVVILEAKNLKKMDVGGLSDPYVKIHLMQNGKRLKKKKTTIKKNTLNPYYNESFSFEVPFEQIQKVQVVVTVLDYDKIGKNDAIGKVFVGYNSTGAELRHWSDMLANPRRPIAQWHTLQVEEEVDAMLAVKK

[4] = target: T1, cytosolic (amino acids 97-421) domain …; assay: far-Western, overlay or dot blot; dot blot: ~1 μg target protein spotted on nitrocellulose; NbA51 or NbA91 labeled with AbberiorStar635p at 5 nM in 5% milk PBS-Tween20, 1 h; settings: both partners purified

B1: NbSyt1 labelled with Alexa647 (VHH)
VHH: EVQLEESGGGLVRPGGSLRLSCAASGFPFSKYFMSWVRQAPGKGLEWVSTISASGNYETYTESVKGRFTIARDNAKNTLYLQMNSLKPEDTAVYYCAKGSWARDMTRGQGTQVTVSS
notes: also called Fluorescent NbSyt1; source: E. coli SHuffle Express (NEB), purified (Ni beads, SUMO protease elution), labelled with maleimide fluorophore
With B1 the Kd [1] was 0.7 ± 0.3 nM.

B2: clone A91 displayed on phage (VHH)
VHH: EVQLVESGGGLVQPGGSLRLSCVASGFPFSKYFMSWVRQAPGKGLEWVSTISSSGSTTTYTESVKGRFTISRDNAKNTLYLQMNNLKPEDTAVYYCEKGSWAPNNARGQGTQVS
notes: alpaca nanobody clone A91; One of the five clones positive in the phage ELISA; the fusion partner on the phage is surmised from the phagemid; also called NbA91
B2: binds [2].

B3: NbA91 directly labeled with AbberiorStar635p (VHH)
VHH: EVQLVESGGGLVQPGGSLRLSCVASGFPFSKYFMSWVRQAPGKGLEWVSTISSSGSTTTYTESVKGRFTISRDNAKNTLYLQMNNLKPEDTAVYYCEKGSWAPNNARGQGTQVS
notes: alpaca nanobody clone A91; with one or two ectopic cysteines (at the C-terminus or at N- and C-termini); also called Nb-Ab635p
B3: binds [3]; binds [4].
